Reference: patent publication US20050260733A1, “Proteases and uses thereof” (WYETH, priority 2004, published 2005)
Read-outs that look alike come from different tables or passages of the source.

Key:
[1] = target: undigested bovine aggrecan (bovine) (UniProt P13608); assay: cell-based or functional assay
[2] = target: undigested bovine aggrecan (bovine) (UniProt P13608); assay: cell-based or functional assay; remark: listed apart in the source

Sequence of undigested bovine aggrecan (bovine) (P13608 20-2364): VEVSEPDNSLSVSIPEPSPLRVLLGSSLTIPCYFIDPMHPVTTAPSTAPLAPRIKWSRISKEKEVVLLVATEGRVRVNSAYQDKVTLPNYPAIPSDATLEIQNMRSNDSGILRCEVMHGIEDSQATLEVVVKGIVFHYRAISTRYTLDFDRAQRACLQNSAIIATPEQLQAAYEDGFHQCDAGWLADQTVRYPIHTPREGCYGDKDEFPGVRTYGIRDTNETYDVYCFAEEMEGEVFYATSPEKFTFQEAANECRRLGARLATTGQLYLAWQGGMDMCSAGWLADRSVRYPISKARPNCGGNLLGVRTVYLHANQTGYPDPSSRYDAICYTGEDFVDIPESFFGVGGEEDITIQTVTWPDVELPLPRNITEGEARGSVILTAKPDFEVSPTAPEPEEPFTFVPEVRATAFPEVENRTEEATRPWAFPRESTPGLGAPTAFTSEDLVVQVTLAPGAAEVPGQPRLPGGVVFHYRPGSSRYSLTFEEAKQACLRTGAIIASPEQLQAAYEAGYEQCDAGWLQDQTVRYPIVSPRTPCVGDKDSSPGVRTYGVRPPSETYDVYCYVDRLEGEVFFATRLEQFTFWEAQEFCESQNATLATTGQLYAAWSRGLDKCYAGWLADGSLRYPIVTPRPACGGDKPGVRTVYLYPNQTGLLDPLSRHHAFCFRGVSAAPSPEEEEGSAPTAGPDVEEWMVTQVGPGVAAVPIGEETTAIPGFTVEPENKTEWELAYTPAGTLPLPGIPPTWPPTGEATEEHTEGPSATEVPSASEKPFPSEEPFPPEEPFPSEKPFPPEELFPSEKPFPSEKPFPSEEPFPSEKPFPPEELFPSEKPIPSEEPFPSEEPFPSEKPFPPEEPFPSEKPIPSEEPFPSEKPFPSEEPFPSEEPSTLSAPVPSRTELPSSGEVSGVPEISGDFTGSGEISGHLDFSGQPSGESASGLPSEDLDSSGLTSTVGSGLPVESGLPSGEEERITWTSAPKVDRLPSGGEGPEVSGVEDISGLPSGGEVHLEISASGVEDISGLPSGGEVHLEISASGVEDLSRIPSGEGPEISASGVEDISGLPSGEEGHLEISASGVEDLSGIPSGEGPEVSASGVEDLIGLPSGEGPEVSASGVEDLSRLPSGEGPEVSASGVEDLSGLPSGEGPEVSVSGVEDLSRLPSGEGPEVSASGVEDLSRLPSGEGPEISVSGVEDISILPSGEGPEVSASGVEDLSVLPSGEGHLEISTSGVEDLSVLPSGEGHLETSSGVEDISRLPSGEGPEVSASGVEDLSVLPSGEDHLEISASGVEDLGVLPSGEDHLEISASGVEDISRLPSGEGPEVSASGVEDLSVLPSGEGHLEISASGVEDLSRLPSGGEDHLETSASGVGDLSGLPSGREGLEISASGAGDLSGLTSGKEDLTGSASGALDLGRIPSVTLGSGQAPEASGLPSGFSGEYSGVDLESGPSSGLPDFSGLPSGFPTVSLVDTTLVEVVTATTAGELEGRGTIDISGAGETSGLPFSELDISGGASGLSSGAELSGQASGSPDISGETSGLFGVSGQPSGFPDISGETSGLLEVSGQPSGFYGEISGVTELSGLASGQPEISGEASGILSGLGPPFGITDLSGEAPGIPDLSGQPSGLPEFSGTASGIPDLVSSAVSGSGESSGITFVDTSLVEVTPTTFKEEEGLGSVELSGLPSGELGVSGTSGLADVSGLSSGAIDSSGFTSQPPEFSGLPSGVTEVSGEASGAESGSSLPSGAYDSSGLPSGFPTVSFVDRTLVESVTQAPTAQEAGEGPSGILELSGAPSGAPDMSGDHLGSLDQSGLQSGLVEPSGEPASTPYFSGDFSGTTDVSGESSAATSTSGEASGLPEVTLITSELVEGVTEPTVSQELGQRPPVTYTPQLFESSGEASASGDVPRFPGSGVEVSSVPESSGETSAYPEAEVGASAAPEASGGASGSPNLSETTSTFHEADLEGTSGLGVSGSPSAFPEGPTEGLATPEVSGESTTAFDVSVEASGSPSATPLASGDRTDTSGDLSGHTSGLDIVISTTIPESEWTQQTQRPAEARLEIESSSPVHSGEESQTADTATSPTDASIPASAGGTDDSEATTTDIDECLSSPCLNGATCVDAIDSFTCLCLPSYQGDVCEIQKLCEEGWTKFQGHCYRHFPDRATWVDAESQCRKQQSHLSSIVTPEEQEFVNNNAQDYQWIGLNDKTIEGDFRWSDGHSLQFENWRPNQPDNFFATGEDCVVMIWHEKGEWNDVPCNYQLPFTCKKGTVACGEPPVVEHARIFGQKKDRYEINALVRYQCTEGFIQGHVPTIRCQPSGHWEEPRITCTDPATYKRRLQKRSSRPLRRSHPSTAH

Substance: recombinant ADAMTS-4 (from UniProt O75173 213-694) (enzyme)
- amount of enzyme needed for 45% inhibition in the competitive inhibition ELISA for aggrecanase activity [1]: 0.0135 pM
- amount of enzyme needed for 45% inhibition in the competitive inhibition ELISA for aggrecanase activity [2]: 1 ng
